The record followed here is the nanobody polyreactivity screen of Harvey et al. (2022).

This data set is described as follows: yeast display, Sf9 membrane polyspecificity reagent, FACS + sequencing; frameworks hold sequencing errors. The essentials:
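Nanobodies from a synthetic yeast display library (Saccharomyces cerevisiae BJ5465), induced 36–48 hours with galactose, were stained 1 hour at 4 °C with 10% biotinylated, detergent-solubilized Sf9 membrane reagent, enriched on streptavidin microbeads, then FACS-sorted. Anti-HA (expression) and streptavidin (reagent binding) fluorescence set low and high (top ~1%) gates. Polyreactivity labels come from the gate of origin. Genes were colony-PCR amplified, MiSeq 2 × 250 sequenced and filtered by CDR length.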
As for “QVQLVESGGGLVQAGRSLRLSCAASGRTFPYNAMGWYRQAPGKESELVAAITSGGTTNYADSVKGRFTISRDNAKSTVYLQFNRLKPEDTAVYYCAADSDASSQFRRDYWGQGSQVTVSS”, the “polyreactivity (PSR sort gate)” value is given as “low polyreactivity”.

Take “QVQLVESGGGLVQAGRSLRLSCAASGRTFRGYAMGWYRQAPGKERELVAAITWRGGSTYYADSVKGRFTISRDNGKNTVYLLMNSLKPEDCAVYYCNARQWPLAYEYWGLGTQVTVSS”: the “polyreactivity (PSR sort gate)” value was “high polyreactivity”. On to “QVQLVESGGGLVQAGRSLRLSCAASGRTFVFNAMGWYRQAPGKERELVARITLSGGSTYYADSVKGRFTISRDNAKNTVYLQMNSLKPEDTAVYYCAASHYFWFVQNDSDYWGQGTQVTVSS”, for which the “polyreactivity (PSR sort gate)” value was “low polyreactivity”. In the case of “QVQLVESGGGLVQAGRSLRLSCAASGRTLHQYDMGWFRQAPGKEREFVAVIDSSDGSTYYADSVKGRFTISRDNVKNTVYLQMNSLKPEDSAVYYCLGGYYYLQYDYWGQGTQVTVSS”, the “polyreactivity (PSR sort gate)” value is “low polyreactivity”. The value for “QVQLVESGGGLVQAGRSLRLSCAASGRTYGIYAMGWYRQAPGKERQLVAAITWSGDSTYYADSVKGRFTISRDNAKNTVYLQMNSLKPEDTAVYYCAADYVGVTSVRYDYWGQGTQVTVSS” was “low polyreactivity”.

Consider “QVQLVESGGGLVQAGRSLRLSCAASGSIFRIYAMGWYGQAPGKERELVAAITWSGGGTYYADSVKGRFTNSRDNAKNTVYLQMYSLKPEDTAVYYCAADYWGYDIYYGLSERESWGQGTQVTVSS”, for which the “polyreactivity (PSR sort gate)” value was “high polyreactivity”. For “QVQLVESGGGLVQAGRSLRLSCAASGSNFLTNTMGWYRQAPGKERELVAAITLRGGRTYYADSVKGRFTISRDNAKNTVYLHMNSLKPEDTAVYYCNARNYYYPSDRDYWGQGTQVTGSS” the value was “low polyreactivity”; for “QVQLVESGGGLVQAGRSLRLSCAASGSTFDQYDMGWYRQAPGKERELVAAISQSGDRTYYADSVKARFTISRDYAKTTVYLQMNSLQPDDTAVYYCADDGVSQDYYYRYDYWGQCTQVTVSS”, “low polyreactivity”.

In the case of “QVQLVESGGGLVQAGRSLRLSCAASGSTLQNNGMGWYRQAPGKERELVAAISIGGDTNYADSVKGRFTISRDNAKNTEMNSMKPEDTAGYYCNTDYFGSQVVVIFDFWGQGTQVTVSS”, the “polyreactivity (PSR sort gate)” value is listed as “low polyreactivity”. The value for “QVQLVESGGGLVQAGRSLRLSCAASGSTSERYDMGWYRQAPGKERELVATITWSGGDTHYADSVKGRFTISRDNAKNSVYLQLNSLKPEDTAVYYCAAEYTFVWGMWYDYWGQGTQVTVSS” was “low polyreactivity”; that for “QVQLVESGGGLVQAGRSLRLSCAASVSIFRPNAMGWYRQAPGKERDLVAAISSSGGSTYYSDSVKGRFTISRDNAKNTVYLQMNSLKPDDTAVYYCAAESLSTWIHSRDSWGQGTQVTVSS” was “low polyreactivity”; that for “QVQLVESGGGLVQAGRSLRLSCPASGSIFIIYAMGWYRQQPGKERELVAAISASGGITYYADSVKGRFTISRDNAKNTVYLQMNRLKPEDTAVYYCAARRYRYFWVPRPYDYWGQGTQVTVSS” was “high polyreactivity”.

As for “QVQLVESGGGLVQAGRSLRLSSAASGSIVAPNPMGWYRQAPGKEREYVAAITLDDGRTYYADSVKGRFTISRDNSNNTVYLHMNSRKPEDTAVYYCNAEWRGYSVYWRTRYDSWGQGTHVTVSS”, the “polyreactivity (PSR sort gate)” value is reported as “low polyreactivity”.

As to “QVQLVESGGGLVQAGRSLRLSSAASGSTFYYNPMGWYRQAPGKERELVAAISGGDSTYYADSVKGRFTISRDNAKNTVYLQMNSMKPEDTAVYYCAAASRRRSDGRRYGYWGQGTQVTVSS”, the “polyreactivity (PSR sort gate)” value is “high polyreactivity”. On to “QVQLVESGGGLVQAGRSLRLTCAASGRTFWWYAMGWYRQAPGKEWEFVAAISQRGTSTYYADSVKGRFTISRDNAKNTVYLQMNSLKPEDTAVYDCAATVYPSWYVLFTARRMDYWGQGTQVTVSS”, for which the “polyreactivity (PSR sort gate)” value is “high polyreactivity”.

Take “QVQLVESGGGLVQAGRSLRVRCAASGSTFGLYAKGWYRQAPGKERELVADITWSGGTTYYADSVMGRFTFSRDNAKNTVYLEINSLKPEDTAVYYCAARYPWVYDDFDYWGQGTQVNVSS”: the “polyreactivity (PSR sort gate)” value is “low polyreactivity”. The value for “QVQLVESGGGLVQAGSSLRLSCAASGSTFVNNAMGWYRQAPGKERELVAAITSGGSTNYADSVKGRFTISRDNAKNTVYLQMNSLKPEDTAVYYCNADGDSWYTGIPAVSHGYWGQGTQVTVSS” was “low polyreactivity”; that for “QVQLVESGGGLVQAGVSHRLSCAASGSIYYYYAMGWYRQAPGKESELVAGITTSGGSTYYAESVKVRFTISRDNAKNTVYLQMISLKPEDNAVYYCAAYDYISSTYFLDDYWGQGTQVTVSS” was “low polyreactivity”.

With “QVQLVESGGGLVQAGVSLLLSCAATGIIFSYYAMGWYRQAPGKERELVAAISWNSGSTYYADSVKGRFTISRDNAKNTVYLQMNSLKPEDTAVYYCAAESYYSYSYYRPYEYYYWGQGNQVTVSS”, the “polyreactivity (PSR sort gate)” value is “high polyreactivity”. The value for “QVQLVESGGGLVQAGVSLLLTCAASGRISFRYAMVWYRQAPGKERELVAAINRGGITNYADSVKGRFTISRDNAKNTVYLKMNSLKKEDTAVYYCAARYASPRYKSKMDYWGQGTQVTVSS” was “high polyreactivity”; that for “QVQLVESGGGLVQAGVSLPLSCAASGIIFFSYAMGWYRPAPGKERELVAAITSRGTSTYYADSVKGRFTISRDNAKNTVYLQLISLKPEDTAVYYCAARWLWRASKVDYWGQGTQVTLSS” was “high polyreactivity”.

Take “QVQLVESGGGLVQAGVSLRFSCAASGYIFDVNALGWYRQEPGKERELVAAISQRGTRTYYADSVKGRFTITRDNANNTVFLQMNSLKPEYTAVYYCNRGGWRQYDSWGQGTQVTVSS”: the “polyreactivity (PSR sort gate)” value was “high polyreactivity”. For “QVQLVESGGGLVQAGVSLRLICAASGRTFGRSVMGWYRQAPGKERELVAAITSSSSSTYADSVKGRFTISRDNAKNTVYVQMNSLKPEDTEVYYCNKRYPSRHLPEYDYWGQGTQVSVSS” the value was “high polyreactivity”; for “QVQLVESGGGLVQAGVSLRLSCAASASTFSIYAMGWYRHAPGKERELVAAIDSGGRTKYADSVKGRFTISRDNAKNPVYLQMNSLKPEDTAVYYWAAVFRGWWLYDYWGLGTQVTVSS”, “low polyreactivity”. For “QVQLVESGGGLVQAGVSLRLSCAASGFILDYNTMGWYRQAPGKERELVAAISSSGDTTYYADSVKGRFTISRDNAKNTVYLQMNSLKREDTAVYYCAREYGVGYEYWGLGTQVTVSS” the value was “low polyreactivity”; for “QVQLVESGGGLVQAGVSLRLSCAASGFTFGRYAMGWYRQAPGKERELVAAISNSGGSTYYADSVKGRFTISRDNAKNTVYLQMNSLKPEATAVYYCAARDSYWSVYYWGQGTQVTVSS”, “high polyreactivity”. For the sequence “QVQLVESGGGLVQAGVSLRLSCAASGLIFGQNAMGWYRQAPAKERELVAAISQRGGTYYADSVKGRFTISRDNSKNTVYLQMNSLKPEDTAVYYCAARVGLQPGRYYLRYDYWGQGTQVTVSS”, the “polyreactivity (PSR sort gate)” value is listed as “low polyreactivity”. For “QVQLVESGGGLVQAGVSLRLSCAASGLIFWAYAMGWYRQAPGKERELVAAINSGGRTYYADSVKGRFTISRDNAKNTVYLQMNSLKPEDTAVYYCAAAGVYSSDYWGQCTQVTVSS” the value was “low polyreactivity”; for “QVQLVESGGGLVQAGVSLRLSCAASGNTFGLYAMGWYRQAPGKEREFVADITTDGGTTYYADSVKGRFTISRDNAKNTVYLQMNSLKPEDTAVYYCAKLGTFGQHQYDYWGQGTQVTVSS”, “low polyreactivity”. Take “QVQLVESGGGLVQAGVSLRLSCAASGRIFIVYAMGWYRQAPGKERELVAAISWRGGNTYYADSVKARFTISRDNAKNTVYLQMNSLKPEDTAVYYCAARQYGTAAFDYWGQGTQVTVSS”: the “polyreactivity (PSR sort gate)” value is “high polyreactivity”. Consider “QVQLVESGGGLVQAGVSLRLSCAASGRIFPSYAMGWYRQAPGKEREMVAAITSSDSTYYADSVKGRFTISRDNAKNTVYLQMNSLKPDDTAVYYCAAAYSYSGWWWFGYWGQGTQVTVSS”, for which the “polyreactivity (PSR sort gate)” value is listed as “high polyreactivity”. For “QVQLVESGGGLVQAGVSLRLSCAASGSIFDVYAMGWYRQAPGKERELVATISYGDSSTYYADSVKGRFTISRDNAKNTVYLQMNSLKPEDTAVYYCAADYLTAPRWRQWGEMDYWGQGTQVTVSS” the value was “low polyreactivity”; for “QVQLVESGGGLVQAGVSLRLSCAASGSIFRYYAMGWYRQAPGKERELVAAITVGGSTYYADSVKGRFTISRDNAKNTVYLQMNSLKPEDTAVYYCAADGDKRTKGYDYWGQGTQVTVSS”, “high polyreactivity”. For “QVQLVESGGGLVQAGVSLRLSCAASGSIFSKYVMGWYRQAPGKERELVAAISWSGTRTYYADSVKGRFTISRDYAKNSVYLQMNSLKPEDTAVYYCAKYIFTTGLGYWGQGTQVTVSS” the value was “high polyreactivity”; for “QVQLVESGGGLVQAGVSLRLSCAASGSIFSYNAMGWYRQAPGKERELVAAINNGGSTYYADSVKGRFTISRDNAKNTVYLQMNSLKPEDTAVYYCAAQSGHYAEYNYWGQGTQVTVSS”, “high polyreactivity”; for “QVQLVESGGGLVQAGVSLRLSCAASGSSLARNAMGWYRQAPGKERELVAAISRRSGSTYYADSVKGRFTFSRDNAKNTVYLQMNSLKPEDTAVYYCAKLGIVHQYDYWGQGTQVTVSS”, “low polyreactivity”. The value for “QVQLVESGGGLVQAGVSLRLSCAASGSTFTTNVMGWYIQAPGKERELVAAISWSSGSTYYADSVKGRFTISRDNAKNTVYLQMNSLKPEDTAVYYCAARLVIFYPYSRYYYWGQGTQVTVSS” was “high polyreactivity”; that for “QVQLVESGGGLVQAGVSLRLSCAASGTFYSNAMGWYRQAPGKERELVAAINTSGSTNYADSVKGRFTISRDNAKNTVYLQMNSLKPEDTAVYYCAAGIVVTGYDYWGQGTQVTVSS” was “low polyreactivity”; that for “QVQLVESGGGLVQAGVSLRLSCAASGTTFGLNPMGWYRQAPGKERELVAAISTSGGSTYYADSVKGRFTISRDNAKNSVYLQMISLKPEDTAVYYCAAEVDAGYDYSQYYYWGQGTQVTVSS” was “low polyreactivity”.

Consider “QVQLVESGGGLVQAGVSLRLSCAATGFPLQVYDMGWYRQAPGKEMELVADISGSGDSTNYADSVKGRFTISRDNAKNSVYLQMNSLKPEDTAVYYCAAEVRGGYYGYDYWGQGTQVTVSS”, for which the “polyreactivity (PSR sort gate)” value is given as “low polyreactivity”.

As for “QVQLVESGGGLVQAGVSLRLSCAPSGRTFIYYAMGWYRQAPGKERELVATINGITGSTYYADSVKGRFTNSRDNAKNTVYLQMNSLKPEDTAVYYCAKVPRKYRAWMDYWGQGTQVTVSS”, the “polyreactivity (PSR sort gate)” value is listed as “high polyreactivity”.
